B1: Mab001 (antibody, V domains shown)
VH: QVQLVQSGAEVKKPGSSVKVSCKASGYTFTSYNMHWVRQAPGQGLEWMGAIYPGNGDTSYNQKFQGRVTLTADKSSSTAYMELSSLRSEDTAVYYCARSTYYGGDWYFNVWGQGTLVTVSS
VL: EIVLTQSPGTLSLSPGERATLSCRASSSVSYIHWFQQKPGQAPRPLIYATSNLASGIPDRFSGSGSGTDYTLTISRLEPEDFAVYYCQQWTSNPPTFGQGTKLEIK
notes: also called humanized Mab001 antibody; humanized anti-CD20 antibody
B2: Mab002 (antibody, V domains shown)
VH: QVQLVQSGAEVKKPGSSVKVSCKASGYTFTSYNMHWVRQAPGQGLEWMGAIYPGNGDTSYNQKFQGRVTLTADKSSSTAYMELSSLRSEDTAVYYCARSTYYGGDWYFDYWGQGTLVTVSS
VL: EIVLTQSPGTLSLSPGERATLSCRASSSVSYIHWFQQKPGQAPRPLIYATSNLASGIPDRFSGSGSGTDYTLTISRLEPEDFAVYYCQQWTSNPPTFGQGTKLEIK
notes: also called humanized Mab002 antibody; humanized anti-CD20 antibody
B3: Mab005 (antibody, V domains shown)
VH: EVQLLESGGGLVQPGGSLRLSCAASGFTFNDYAMHWVRQAPGKGLEWVSTISWNSGSIGYADSVKGRFTISRDNSKNTLYLQMNSLRAEDTAVYYCAKDIQYGNYYYGMDVWGQGTLVTVSS
VL: EIVLTQSPGTLSLSPGERATLSCRASQSVSSYLAWYQQKPGQAPRLLIYDASNRATGIPDRFSGSGSGTDFTLTISRLEPEDFAVYYCQQRSNWPITFGQGTKLEIK
notes: also called humanized Mab005 antibody; humanized anti-CD20 antibody
B4: Mab004 (antibody, V domains shown)
VH: EVQLLESGGGLVQPGGSLRLSCAASGFTFNDYAMHWVRQAPGKGLEWVSTISWNSGSIGYADSVKGRFTISRDNAKKTLYLQMNSLRAEDTAVYYCAKDIQYGNYYYGMDVWGQGTLVTVSS
VL: EIVLTQSPGTLSLSPGERATLSCRASQSVSSYLAWYQQKPGQAPRLLIYDASNRATGIPDRFSGSGSGTDFTLTISRLEPEDFAVYYCQQRSNWPITFGQGTKLEIK
notes: also called humanized Mab004 antibody; humanized anti-CD20 antibody
B5: Mab007 (antibody, V domains shown)
VH: EVQLLESGGGVVQPGGSLRLSCAASGFTFNDYAMHWVRQAPGKGLEWVSTISWNSGSIGYADSVKGRFTISRDNSKNTLYLQMNSLRAEDTAVYYCAKDIQYGNYYYGMDYWGQGTLVTVSS
VL: EIVLTQSPGTLSLSPGERATLSCRASQSVSSYLAWYQQKPGQAPRLLIYDASNRATGIPDRFSGSGSGTDFTLTISRLEPEDFAVYYCQQRSNWPITFGQGTKLEIK
notes: also called humanized Mab007 antibody; humanized anti-CD20 antibody
B6: Mab006 (antibody, V domains shown)
VH: EVQLLESGGGVVQPGGSLRLSCAASGFTFNDYAMHWVRQAPGKGLEWVSTISWNSGSIGYADSVKGRFTISRDNSKNTLYLQMNSLRAEDTAVYYCAKDIQYGNYYYGMDVWGQGTLVTVSS
VL: EIVLTQSPGTLSLSPGERATLSCRASQSVSSYLAWYQQKPGQAPRLLIYDASNRATGIPDRFSGSGSGTDFTLTISRLEPEDFAVYYCQQRSNWPITFGQGTKLEIK
notes: also called humanized Mab006 antibody; humanized anti-CD20 antibody
B7: aCD3-hVH9/VL2 (antibody, human IgG4, V domains shown)
VH: EVQLVESGGGLVQPGGSLRLSCAASGFTFNTYAMNWVRKAPGKGLEWVGRIRSKYNNYATYYADSVKDRFTISRDDSKNSLYLQMNSLKTEDTAVYYCVRHGNFGNSYVSWFAYWGQGTLVTVSS
VL: QAVVTQEPSLTVSPGGTVTLTCRSSTGAVTTSNYANWVQEKPGQAPRGLIGGTNKRAPWTPARFSGSLLGGKAALTLSGAQPEDEAEYYCALWYSNLWVFGGGTKLTVL
notes: Expressed with an antibody lambda light chain constant region and human IgG4 heavy chain constant regions CH1-CH3; also called humanized anti-CD3 antibody hVH9/VL2
B8: aCD3-hVH9/VL1 (antibody, human IgG4, V domains shown)
VH: EVQLVESGGGLVQPGGSLRLSCAASGFTFNTYAMNWVRKAPGKGLEWVGRIRSKYNNYATYYADSVKDRFTISRDDSKNSLYLQMNSLKTEDTAVYYCVRHGNFGNSYVSWFAYWGQGTLVTVSS
VL: QAVVTQEPSLTVSPGGTVTLTCRSSTGAVTTSNYANWVQQKPGQAPRGLIGGTNKRAPWTPARFSGSLLGGKAALTLSGAQPEDEAEYYCALWYSNLWVFGGGTKLTVL
notes: Expressed with an antibody lambda light chain constant region and human IgG4 heavy chain constant regions CH1-CH3; also called humanized anti-CD3 antibody hVH9/VL1
B9: aCD3-hVH9/VL3 (antibody, human IgG4, V domains shown)
VH: EVQLVESGGGLVQPGGSLRLSCAASGFTFNTYAMNWVRKAPGKGLEWVGRIRSKYNNYATYYADSVKDRFTISRDDSKNSLYLQMNSLKTEDTAVYYCVRHGNFGNSYVSWFAYWGQGTLVTVSS
VL: EAVVTQEPSLTVSPGGTVTLTCESSDGAVTTSNYANWVQEKPGQAPRGLIGGTNKEAPWTPARFSGSLLGGKAALTLSGAQPEDEAEYYCALWYSNLWVFGGGTKLTVL
notes: Expressed with an antibody lambda light chain constant region and human IgG4 heavy chain constant regions CH1-CH3; also called humanized anti-CD3 antibody hVH9/VL3
B10: aCD3-hVH1/VL5 (antibody, human IgG4, V domains shown)
VH: EVQLVESGGGLVQPGGSLRLSCAASGFTFNTYAMNWVRQAPGKGLEWVSRIRSKYNNYATYYADSVKDRFTISRDDSKNTLYLQMNSLKTEDTAVYYCVRHGNFGNSYVSWFAYWGQGTLVTVSS
VL: QAVVTQEPSLTVSPGGTVTLTCRSSTGAVTTSNYANWVQEKPGQAPRGLIGGTNKRAPWTPARFSGSLLGGKAALTITGAQAEDEAEYYCVLWYSNLWVFGGGTKLTVL
notes: Expressed with an antibody lambda light chain constant region and human IgG4 heavy chain constant regions CH1-CH3; also called humanized anti-CD3 antibody hVH1/VL5
B11: aCD3-hVH9/VL5 (antibody, human IgG4, V domains shown)
VH: EVQLVESGGGLVQPGGSLRLSCAASGFTFNTYAMNWVRKAPGKGLEWVGRIRSKYNNYATYYADSVKDRFTISRDDSKNSLYLQMNSLKTEDTAVYYCVRHGNFGNSYVSWFAYWGQGTLVTVSS
VL: QAVVTQEPSLTVSPGGTVTLTCRSSTGAVTTSNYANWVQEKPGQAPRGLIGGTNKRAPWTPARFSGSLLGGKAALTITGAQAEDEAEYYCVLWYSNLWVFGGGTKLTVL
notes: Expressed with an antibody lambda light chain constant region and human IgG4 heavy chain constant regions CH1-CH3; also called humanized anti-CD3 antibody hVH9/VL5
B12: aCD3-hVH8/VL5 (antibody, human IgG4, V domains shown)
VH: EVQLVESGGGLVQPGGSLRLSCAASGFTFNTYAMNWVRKAPGKGLEWVGRIRSKYNNYATYYADSVKDRFTISRDDSKNSLYLQMNSLKTEDTAVYYCARHGNFGNSYVSWFAYWGQGTLVTVSS
VL: QAVVTQEPSLTVSPGGTVTLTCRSSTGAVTTSNYANWVQEKPGQAPRGLIGGTNKRAPWTPARFSGSLLGGKAALTITGAQAEDEAEYYCVLWYSNLWVFGGGTKLTVL
notes: Expressed with an antibody lambda light chain constant region and human IgG4 heavy chain constant regions CH1-CH3; also called aCD3-hVH8/VLS (so in the source)
B13: aCD3-hVH8/VL1 (antibody, human IgG4, V domains shown)
VH: EVQLVESGGGLVQPGGSLRLSCAASGFTFNTYAMNWVRKAPGKGLEWVGRIRSKYNNYATYYADSVKDRFTISRDDSKNSLYLQMNSLKTEDTAVYYCARHGNFGNSYVSWFAYWGQGTLVTVSS
VL: QAVVTQEPSLTVSPGGTVTLTCRSSTGAVTTSNYANWVQQKPGQAPRGLIGGTNKRAPWTPARFSGSLLGGKAALTLSGAQPEDEAEYYCALWYSNLWVFGGGTKLTVL
notes: Expressed with an antibody lambda light chain constant region and human IgG4 heavy chain constant regions CH1-CH3; also called humanized anti-CD3 antibody hVH8/VL1

A word on the EC50 (read off the curve): it is the concentration at which the effect is half-maximal.

One assay has as its target T1, human CD20 (human, UniProt P11836 1-297).
T1 construct: whole, on cells; also called CD20 receptor; CHO-human CD20 (clone 3G6)
T1 sequence (looked up): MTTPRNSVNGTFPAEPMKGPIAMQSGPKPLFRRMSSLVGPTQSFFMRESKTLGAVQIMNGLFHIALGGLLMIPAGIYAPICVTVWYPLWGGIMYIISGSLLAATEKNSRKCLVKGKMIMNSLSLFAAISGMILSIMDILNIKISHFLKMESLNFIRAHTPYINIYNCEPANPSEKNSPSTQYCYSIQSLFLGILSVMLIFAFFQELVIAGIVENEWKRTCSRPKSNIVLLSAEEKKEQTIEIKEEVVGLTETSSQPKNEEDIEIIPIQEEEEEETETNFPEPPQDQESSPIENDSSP
Kind of assay: flow cytometry on Raji cells, Alexa Fluor 647 goat anti-human IgG Fc. As to the method: (§1) A lymphoma cell line Raji and Daudi cells in the logarithmic growth phase were taken, 200 μg/mL mouse IgG (Jackson ImmunoResearch) was added, and the mixture was blocked for 30 min. 5×10⁴ cells and 50 μL, of gradient-diluted antibody (the initial concentration of 200 nM, 5-fold dilution, a total of 8 gradients) were added to each well of a 96-well U-shaped plate, and incubated on ice for 45 min. After the cells were washed, 50 μL, of Alexa Fluro647-labelled goat anti-human IgG Fc (1: 300 dilution) was added to each well, and the mixture was incubated on ice for 45 min. 60 μL, of PI (Sigma, P4170) was added to each well, and the mixture was incubated for 5 min and detected by using a flow cytometer (iQue Screener).
(In general: A flow cytometer gives signals particle by particle.)
For B1, the binding result is listed as “binds”.
On to B2, for which the binding result is reported as “binds”.

A further assay concerns the target T1, human CD20. Kind of assay: flow cytometry on Daudi cells, Alexa Fluor 647 goat anti-human IgG Fc. As for the experimental part:
as §1
Regarding B3, the “EC50 (read off the curve)” value is roughly 10 nM.
Same read-out and setting: the figure for B4 is roughly 10 nM; for B5 it is roughly 10 nM.
Still for that read-out and setting: the figure for B6 is roughly 10 nM.

Another assay addresses T2, recombinant human CD3εγ-Fc heterodimer (human).
T2 construct: Extracellular regions of CD3γ and CD3ε as Fc hole/knob heterodimer; also called human CD3εγ protein; recombinant human CD3γ/ε antigen
T2 chain 1: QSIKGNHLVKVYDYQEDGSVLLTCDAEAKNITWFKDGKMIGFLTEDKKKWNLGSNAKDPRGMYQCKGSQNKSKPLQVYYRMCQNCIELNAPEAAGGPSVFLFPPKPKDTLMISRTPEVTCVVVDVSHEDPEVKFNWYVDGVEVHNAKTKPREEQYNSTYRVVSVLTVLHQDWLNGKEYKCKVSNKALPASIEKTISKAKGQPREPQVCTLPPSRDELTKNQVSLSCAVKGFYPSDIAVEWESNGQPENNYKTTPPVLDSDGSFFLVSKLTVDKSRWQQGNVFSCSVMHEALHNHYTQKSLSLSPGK
T2 chain 2: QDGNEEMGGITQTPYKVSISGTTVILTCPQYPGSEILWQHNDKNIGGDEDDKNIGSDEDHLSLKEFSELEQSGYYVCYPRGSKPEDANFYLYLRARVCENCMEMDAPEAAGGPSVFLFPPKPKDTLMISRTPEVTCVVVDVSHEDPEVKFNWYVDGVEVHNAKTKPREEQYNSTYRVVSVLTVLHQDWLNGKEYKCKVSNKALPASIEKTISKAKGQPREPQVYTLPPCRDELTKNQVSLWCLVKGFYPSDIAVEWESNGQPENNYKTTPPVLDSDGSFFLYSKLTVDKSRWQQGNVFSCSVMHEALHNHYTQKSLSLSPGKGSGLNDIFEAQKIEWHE
Kind of assay: ELISA, human CD3εγ protein coated on the plate, HRP goat anti-human IgG Fc, A450. As to the method: Human CD3εγ protein was coated onto a plate and placed at 4° C. overnight.
(In general: ELISA stands for enzyme-linked immunosorbent assay.)
Take B7: the “EC50 (read off the curve)” value is roughly 0.6 nM.
For B8, the “EC50 (read off the curve)” value is roughly 0.6 nM.
On to B9, for which the “EC50 (read off the curve)” value is roughly 0.6 nM.
Take B10: the “EC50 (read off the curve)” value is roughly 0.6 nM.
Same read-out and setting: the same measure for B11: roughly 0.5 nM.
Take B12: the “EC50 (read off the curve)” value is roughly 0.6 nM.
For B13, the “EC50 (read off the curve)” value was roughly 0.6 nM.

The values are drawn from US20230330257A1 (BEIJING TIANNUOJIANCHENG PHARMA TECH, published 2023).
